In patent US20250320302A1 (EVOTEC INTERNATIONAL, published 2025):
Where a chain is given by its changes, count along the chain named.

T1: human type I IFN receptor on HEK-Blue IFN-α/β cells (human, UniProt P17181 28-557; P48551 27-515)
T1 sequence (looked up) 1: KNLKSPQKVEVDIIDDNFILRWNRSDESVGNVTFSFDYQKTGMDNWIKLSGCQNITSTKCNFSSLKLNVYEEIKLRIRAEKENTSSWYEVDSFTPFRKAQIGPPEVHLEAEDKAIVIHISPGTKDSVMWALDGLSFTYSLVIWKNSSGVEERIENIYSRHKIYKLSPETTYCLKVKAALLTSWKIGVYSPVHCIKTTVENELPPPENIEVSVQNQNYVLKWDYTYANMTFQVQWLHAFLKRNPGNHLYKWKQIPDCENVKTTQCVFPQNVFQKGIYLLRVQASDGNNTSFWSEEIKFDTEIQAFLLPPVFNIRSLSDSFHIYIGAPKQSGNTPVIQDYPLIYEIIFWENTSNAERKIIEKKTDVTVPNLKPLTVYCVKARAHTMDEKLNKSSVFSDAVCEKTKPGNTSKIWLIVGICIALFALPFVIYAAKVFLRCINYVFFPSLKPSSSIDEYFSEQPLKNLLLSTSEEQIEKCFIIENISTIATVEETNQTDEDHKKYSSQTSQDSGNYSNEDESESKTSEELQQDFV
T1 sequence (looked up) 2: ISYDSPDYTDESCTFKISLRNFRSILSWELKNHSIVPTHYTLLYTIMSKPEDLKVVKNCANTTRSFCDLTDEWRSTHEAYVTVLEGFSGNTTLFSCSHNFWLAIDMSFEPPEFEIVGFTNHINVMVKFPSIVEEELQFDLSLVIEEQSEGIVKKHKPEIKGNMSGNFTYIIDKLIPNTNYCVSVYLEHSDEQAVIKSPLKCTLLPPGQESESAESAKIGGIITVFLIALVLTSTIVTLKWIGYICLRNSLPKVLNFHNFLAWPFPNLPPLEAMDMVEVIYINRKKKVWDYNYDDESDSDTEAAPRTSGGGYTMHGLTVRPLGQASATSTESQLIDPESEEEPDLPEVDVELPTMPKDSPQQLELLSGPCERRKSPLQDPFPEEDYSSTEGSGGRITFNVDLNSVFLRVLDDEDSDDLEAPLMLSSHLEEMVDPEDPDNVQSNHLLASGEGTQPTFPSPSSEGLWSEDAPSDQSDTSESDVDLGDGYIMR

B1: IFA10 (antibody, human IgG2, kappa)
heavy: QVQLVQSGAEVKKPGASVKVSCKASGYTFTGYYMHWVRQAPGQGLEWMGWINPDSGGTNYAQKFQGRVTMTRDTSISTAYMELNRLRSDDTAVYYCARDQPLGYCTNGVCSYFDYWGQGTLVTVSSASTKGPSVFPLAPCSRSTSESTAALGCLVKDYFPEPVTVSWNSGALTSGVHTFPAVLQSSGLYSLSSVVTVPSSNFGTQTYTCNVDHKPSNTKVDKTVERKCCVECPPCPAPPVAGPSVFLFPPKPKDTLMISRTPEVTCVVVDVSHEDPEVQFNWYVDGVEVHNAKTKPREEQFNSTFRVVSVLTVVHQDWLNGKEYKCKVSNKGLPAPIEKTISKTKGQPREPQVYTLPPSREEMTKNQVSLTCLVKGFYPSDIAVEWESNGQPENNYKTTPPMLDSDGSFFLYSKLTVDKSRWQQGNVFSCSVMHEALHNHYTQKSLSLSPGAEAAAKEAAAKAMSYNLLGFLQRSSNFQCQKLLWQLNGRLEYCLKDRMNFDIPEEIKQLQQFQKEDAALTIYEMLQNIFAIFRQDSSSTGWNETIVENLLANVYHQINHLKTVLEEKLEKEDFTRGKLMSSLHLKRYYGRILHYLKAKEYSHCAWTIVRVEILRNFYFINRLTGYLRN
light: DIQMTQSPSSVSASVGDRVTITCRASQGIYSWLAWYQQKPGKAPNLLIYTASTLQSGVPSRFSGSGSGTDFTLTISSLQPEDFATYYCQQANIFPLTFGGGTKVEIKRTVAAPSVFIFPPSDEQLKSGTASVVCLLNNFYPREAKVQWKVDNALQSGNSQESVTEQDSKDSTYSLSSTLTLSKADYEKHKVYACEVTHQGLSSPVTKSFNRGEC
B2: IFA8 (antibody, human IgG2, kappa)
heavy: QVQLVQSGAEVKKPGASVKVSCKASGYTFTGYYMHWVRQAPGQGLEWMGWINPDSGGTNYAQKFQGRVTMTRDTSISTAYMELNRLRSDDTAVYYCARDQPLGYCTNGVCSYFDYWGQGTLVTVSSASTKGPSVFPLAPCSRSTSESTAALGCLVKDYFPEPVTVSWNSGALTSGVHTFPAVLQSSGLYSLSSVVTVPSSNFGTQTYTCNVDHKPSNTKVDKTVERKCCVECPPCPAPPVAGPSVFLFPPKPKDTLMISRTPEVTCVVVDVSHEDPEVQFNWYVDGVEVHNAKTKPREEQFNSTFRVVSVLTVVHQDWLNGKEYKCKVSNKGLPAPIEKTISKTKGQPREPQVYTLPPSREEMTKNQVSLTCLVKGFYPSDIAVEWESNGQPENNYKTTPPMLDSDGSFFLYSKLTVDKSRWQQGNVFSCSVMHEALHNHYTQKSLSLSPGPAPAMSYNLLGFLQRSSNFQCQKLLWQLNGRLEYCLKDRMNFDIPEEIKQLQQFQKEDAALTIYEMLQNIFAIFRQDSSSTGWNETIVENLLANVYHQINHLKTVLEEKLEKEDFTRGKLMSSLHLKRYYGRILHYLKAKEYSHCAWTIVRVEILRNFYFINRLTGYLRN
light: B1 light
B3: IFA49 (antibody, human IgG2, kappa)
heavy: not shown
light: B1 light
B4: IFA9 (antibody, human IgG2, kappa)
heavy: not shown
light: B1 light
B5: IFA11 (antibody, human IgG2, kappa)
heavy: not shown
light: B1 light
B6: IFA1 (antibody, human IgG2, kappa)
light: DIQMTQSPSSVSASVGDRVTITCRASQGIYSWLAWYQQKPGKAPNLLIYTASTLQSGVPSRFSGSGSGTDFTLTISSLQPEDFATYYCQQANIFPLTFGGGTKVEIKRTVAAPSVFIFPPSDEQLKSGTASVVCLLNNFYPREAKVQWKVDNALQSGNSQESVTEQDSKDSTYSLSSTLTLSKADYEKHKVYACEVTHQGLSSPVTKSFNRGECAEAAAKEAAAKAMSYNLLGFLQRSSNFQCQKLLWQLNGRLEYCLKDRMNFDIPEEIKQLQQFQKEDAALTIYEMLQNIFAIFRQDSSSTGWNETIVENLLANVYHQINHLKTVLEEKLEKEDFTRGKLMSSLHLKRYYGRILHYLKAKEYSHCAWTIVRVEILRNFYFINRLTGYLRN
heavy: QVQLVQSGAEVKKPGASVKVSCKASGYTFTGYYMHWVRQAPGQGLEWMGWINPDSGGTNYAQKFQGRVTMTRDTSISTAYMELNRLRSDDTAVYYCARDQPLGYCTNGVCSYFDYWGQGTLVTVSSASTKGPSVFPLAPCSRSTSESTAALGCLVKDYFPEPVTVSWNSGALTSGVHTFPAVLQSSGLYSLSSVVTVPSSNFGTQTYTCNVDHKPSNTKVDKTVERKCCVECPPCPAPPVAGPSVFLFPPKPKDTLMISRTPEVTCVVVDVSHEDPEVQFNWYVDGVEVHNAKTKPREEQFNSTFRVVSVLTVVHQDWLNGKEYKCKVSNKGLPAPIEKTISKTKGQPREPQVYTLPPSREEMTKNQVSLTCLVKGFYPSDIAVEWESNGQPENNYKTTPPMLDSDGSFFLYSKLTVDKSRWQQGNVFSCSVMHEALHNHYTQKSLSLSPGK
B7: IFA2 (antibody, human IgG2, kappa)
light: B6 light with C243S
heavy: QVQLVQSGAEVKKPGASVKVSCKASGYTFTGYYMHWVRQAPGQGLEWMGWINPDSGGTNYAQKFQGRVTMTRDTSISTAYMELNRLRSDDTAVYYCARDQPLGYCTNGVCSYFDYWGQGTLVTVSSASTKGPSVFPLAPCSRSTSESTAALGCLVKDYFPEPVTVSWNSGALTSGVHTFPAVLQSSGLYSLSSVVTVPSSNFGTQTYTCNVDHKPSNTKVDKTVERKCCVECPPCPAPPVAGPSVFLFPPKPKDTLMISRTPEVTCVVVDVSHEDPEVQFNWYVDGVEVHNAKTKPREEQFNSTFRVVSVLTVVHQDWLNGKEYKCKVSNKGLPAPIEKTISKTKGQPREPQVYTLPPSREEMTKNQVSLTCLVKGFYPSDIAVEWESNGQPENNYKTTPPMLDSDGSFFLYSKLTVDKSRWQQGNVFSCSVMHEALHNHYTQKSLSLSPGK
B8: IFA126 (antibody, human IgG2, kappa)
light: DIQMTQSPSSVSASVGDRVTITCRASQGIYSWLAWYQQKPGKAPNLLIYTASTLQSGVPSRFSGSGSGTDFTLTISSLQPEDFATYYCQQANIFPLTFGGGTKVEIKRTVAAPSVFIFPPSDEQLKSGTASVVCLLNNFYPREAKVQWKVDNALQSGNSQESVTEQDSKDSTYSLSSTLTLSKADYEKHKVYACEVTHQGLSSPVTKSFNRGECGGGGSGGGGSGGGGSMSYNLLGFLQRSSNFQSQKLLWQLNGRLEYCLKDRMNFDIPEEIKQLQQFQKEDAALTIYEMLQNIFAIFRQDSSSTGWNETIVENLLANVYHQINHLKTVLEEKLEKEDFTRGKLMSSLHLKRYYGRILHYLKAKEYSHCAWTIVRVEILRNFYFINRLTGYLRN
heavy: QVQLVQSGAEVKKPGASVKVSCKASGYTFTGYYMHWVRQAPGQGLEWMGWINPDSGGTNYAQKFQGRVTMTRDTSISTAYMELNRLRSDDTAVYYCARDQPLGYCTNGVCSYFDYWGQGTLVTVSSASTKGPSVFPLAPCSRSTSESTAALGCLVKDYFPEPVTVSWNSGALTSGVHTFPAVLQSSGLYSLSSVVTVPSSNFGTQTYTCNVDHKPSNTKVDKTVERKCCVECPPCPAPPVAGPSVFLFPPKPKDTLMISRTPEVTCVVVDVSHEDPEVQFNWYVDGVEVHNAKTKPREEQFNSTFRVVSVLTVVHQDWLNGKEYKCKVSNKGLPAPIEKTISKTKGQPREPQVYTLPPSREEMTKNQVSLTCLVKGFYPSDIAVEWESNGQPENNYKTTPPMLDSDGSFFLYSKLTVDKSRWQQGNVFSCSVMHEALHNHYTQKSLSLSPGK
B9: IFA12 (antibody, human IgG2, kappa)
light: DIQMTQSPSSVSASVGDRVTITCRASQGIYSWLAWYQQKPGKAPNLLIYTASTLQSGVPSRFSGSGSGTDFTLTISSLQPEDFATYYCQQANIFPLTFGGGTKVEIKRTVAAPSVFIFPPSDEQLKSGTASVVCLLNNFYPREAKVQWKVDNALQSGNSQESVTEQDSKDSTYSLSSTLTLSKADYEKHKVYACEVTHQGLSSPVTKSFNRGECPAPAMSYNLLGFLQRSSNFQCQKLLWQLNGRLEYCLKDRMNFDIPEEIKQLQQFQKEDAALTIYEMLQNIFAIFRQDSSSTGWNETIVENLLANVYHQINHLKTVLEEKLEKEDFTRGKLMSSLHLKRYYGRILHYLKAKEYSHCAWTIVRVEILRNFYFINRLTGYLRN
heavy: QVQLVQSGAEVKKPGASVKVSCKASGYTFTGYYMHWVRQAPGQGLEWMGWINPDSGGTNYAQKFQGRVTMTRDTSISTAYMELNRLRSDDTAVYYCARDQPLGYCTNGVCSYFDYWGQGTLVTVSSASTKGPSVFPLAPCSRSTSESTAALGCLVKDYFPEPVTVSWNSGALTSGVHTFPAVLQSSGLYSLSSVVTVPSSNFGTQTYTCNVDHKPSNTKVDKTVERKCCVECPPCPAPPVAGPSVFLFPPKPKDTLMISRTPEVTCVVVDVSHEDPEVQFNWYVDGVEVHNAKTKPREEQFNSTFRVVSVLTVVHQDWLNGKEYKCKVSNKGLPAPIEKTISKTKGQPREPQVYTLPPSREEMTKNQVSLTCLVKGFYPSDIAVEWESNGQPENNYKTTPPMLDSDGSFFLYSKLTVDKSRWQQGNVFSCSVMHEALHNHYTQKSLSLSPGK
B10: IFA13 (antibody, human IgG2, kappa)
light: B9 light with C235S
heavy: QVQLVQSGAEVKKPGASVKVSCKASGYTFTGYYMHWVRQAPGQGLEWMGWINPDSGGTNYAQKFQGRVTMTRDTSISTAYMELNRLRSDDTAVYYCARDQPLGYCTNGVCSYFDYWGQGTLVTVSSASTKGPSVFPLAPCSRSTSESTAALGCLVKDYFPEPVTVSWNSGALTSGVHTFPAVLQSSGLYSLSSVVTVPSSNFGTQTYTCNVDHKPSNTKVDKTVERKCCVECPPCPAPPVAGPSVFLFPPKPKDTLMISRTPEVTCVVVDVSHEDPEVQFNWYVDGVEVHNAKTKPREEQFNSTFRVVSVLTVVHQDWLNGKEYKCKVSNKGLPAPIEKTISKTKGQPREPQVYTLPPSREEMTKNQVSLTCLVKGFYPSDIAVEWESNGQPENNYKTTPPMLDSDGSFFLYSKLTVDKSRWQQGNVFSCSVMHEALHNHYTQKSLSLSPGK
B11: IFA20 (antibody, human IgG2, kappa)
light: DIQMTQSPSSVSASVGDRVTITCRASQGIYSWLAWYQQKPGKAPNLLIYTASTLQSGVPSRFSGSGSGTDFTLTISSLQPEDFATYYCQQANIFPLTFGGGTKVEIKRTVAAPSVFIFPPSDEQLKSGTASVVCLLNNFYPREAKVQWKVDNALQSGNSQESVTEQDSKDSTYSLSSTLTLSKADYEKHKVYACEVTHQGLSSPVTKSFNRGECAEAAAKEAAAKAAEAAAKEAAAKAMSYNLLGFLQRSSNFQSQKLLWQLNGRLEYCLKDRMNFDIPEEIKQLQQFQKEDAALTIYEMLQNIFAIFRQDSSSTGWNETIVENLLANVYHQINHLKTVLEEKLEKEDFTRGKLMSSLHLKRYYGRILHYLKAKEYSHCAWTIVRVEILRNFYFINRLTGYLRN
heavy: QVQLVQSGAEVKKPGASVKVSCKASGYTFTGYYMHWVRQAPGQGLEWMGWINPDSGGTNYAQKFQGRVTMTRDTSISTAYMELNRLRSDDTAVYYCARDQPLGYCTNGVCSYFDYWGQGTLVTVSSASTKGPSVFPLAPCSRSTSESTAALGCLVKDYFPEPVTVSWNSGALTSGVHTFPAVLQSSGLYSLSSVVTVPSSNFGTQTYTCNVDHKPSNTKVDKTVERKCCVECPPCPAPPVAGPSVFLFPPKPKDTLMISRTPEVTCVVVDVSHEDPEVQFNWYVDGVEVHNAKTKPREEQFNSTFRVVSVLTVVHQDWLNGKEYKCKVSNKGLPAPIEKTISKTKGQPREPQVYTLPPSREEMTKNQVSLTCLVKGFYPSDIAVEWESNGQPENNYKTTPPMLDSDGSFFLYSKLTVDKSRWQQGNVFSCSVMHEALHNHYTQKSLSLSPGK
B12: IFA19 (antibody, human IgG2, kappa)
light: DIQMTQSPSSVSASVGDRVTITCRASQGIYSWLAWYQQKPGKAPNLLIYTASTLQSGVPSRFSGSGSGTDFTLTISSLQPEDFATYYCQQANIFPLTFGGGTKVEIKRTVAAPSVFIFPPSDEQLKSGTASVVCLLNNFYPREAKVQWKVDNALQSGNSQESVTEQDSKDSTYSLSSTLTLSKADYEKHKVYACEVTHQGLSSPVTKSFNRGECSGGTSGSTSGTGSMSYNLLGFLQRSSNFQSQKLLWQLNGRLEYCLKDRMNFDIPEEIKQLQQFQKEDAALTIYEMLQNIFAIFRQDSSSTGWNETIVENLLANVYHQINHLKTVLEEKLEKEDFTRGKLMSSLHLKRYYGRILHYLKAKEYSHCAWTIVRVEILRNFYFINRLTGYLRN
heavy: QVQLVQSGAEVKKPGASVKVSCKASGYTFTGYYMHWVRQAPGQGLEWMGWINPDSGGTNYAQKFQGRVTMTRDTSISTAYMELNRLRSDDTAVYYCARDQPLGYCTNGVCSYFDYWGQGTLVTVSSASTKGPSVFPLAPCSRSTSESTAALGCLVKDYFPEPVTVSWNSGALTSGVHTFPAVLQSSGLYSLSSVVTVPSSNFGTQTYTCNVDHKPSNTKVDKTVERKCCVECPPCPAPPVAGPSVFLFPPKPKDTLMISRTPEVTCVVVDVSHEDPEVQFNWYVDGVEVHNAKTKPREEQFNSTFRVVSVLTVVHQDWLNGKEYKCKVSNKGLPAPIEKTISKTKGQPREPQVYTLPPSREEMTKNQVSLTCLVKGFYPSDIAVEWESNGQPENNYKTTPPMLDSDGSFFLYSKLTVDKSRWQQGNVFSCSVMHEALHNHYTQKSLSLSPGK

Molecular target: human CD40 (human, UniProt P25942 21-277)
Experiment: cell-based or functional assay

Chain of human CD40 (P25942 21-277): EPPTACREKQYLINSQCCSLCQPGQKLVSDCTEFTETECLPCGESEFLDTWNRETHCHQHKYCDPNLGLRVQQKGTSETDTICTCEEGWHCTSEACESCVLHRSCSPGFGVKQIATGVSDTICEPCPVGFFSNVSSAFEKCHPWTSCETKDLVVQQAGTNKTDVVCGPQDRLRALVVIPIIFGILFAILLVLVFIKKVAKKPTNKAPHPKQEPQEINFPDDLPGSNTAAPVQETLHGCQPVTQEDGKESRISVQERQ

| CD40 EC50 (HEK-Blue CD40L NFκB-SEAP reporter cells) | Binder |
| --- | --- |
| 0.0265 µg/mL | B1 |
| 0.0397 µg/mL | B2 |
| 0.0658 µg/mL | B3 |
| 0.0426 µg/mL | B4 |
| 0.0428 µg/mL | B5 |
| 0.0741 µg/mL | B6 |
| 0.111 µg/mL | B7 |
| 0.364 µg/mL | B8 |
| 0.105 µg/mL | B9 |
| 0.192 µg/mL | B10 |
| 0.182 µg/mL | B11 |
| 0.11 µg/mL | B12 |

Molecular target: T1, human type I IFN receptor on HEK-Blue …
Experiment: cell-based or functional assay

| IFNβ EC50 (HEK-Blue IFN-α/β SEAP reporter cells) | IFNε EC50 (HEK-Blue IFN-α/β SEAP reporter cells) | Binder |
| --- | --- | --- |
| 0.0045 µg/mL | – | B1 |
| 0.0029 µg/mL | – | B2 |
| – | 0.0782 µg/mL | B3 |
| 0.0007 µg/mL | – | B4 |
| 0.00178 µg/mL | – | B5 |
| 0.00164 µg/mL | – | B6 |
| 0.00014 µg/mL | – | B7 |
| 0.00208 µg/mL | – | B8 |
| 0.00364 µg/mL | – | B9 |
| 0.0007 µg/mL | – | B10 |
| 0.00234 µg/mL | – | B11 |
| 0.0013 µg/mL | – | B12 |
